Test results taken from the RNAGym collection of RNA variant scans (doi:10.1073/pnas.2313332121).

B1: TPR t1 (parent)
chain: GACCAAUCUGCCCUCAGAGCUCGAGAACAUCUUCGGAUGCAGAGGAGGCAGGCUUCGGUGGCGCGAUAGCGCCAACGUCCUCAACCUCCAAUGCAUCCCACCACAUGAUGAUGCCUGAAGAGCCUUGGUUUUUUG

Variants of: B1
Test: polymerase ribozyme fitness, log enrichment relative to wild type (log ratio); higher = more active; in vitro selection for triplet polymerase activity
Outline: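 Mutant libraries of each subunit of a heterodimeric triplet polymerase ribozyme were built by PCR and transcribed. Each library went through one round of in vitro selection in triplicate: annealing with biotinylated primer, partner subunit and triplets, frozen incubation at −7 °C, gel excision of extended constructs, streptavidin-bead capture and RT-PCR. Input and output libraries were Illumina-sequenced; only genotypes with ≥10 input reads and ≥1 read per output were kept. Fitness is log2(genotype enrichment/wild-type enrichment), using inverse-variance-weighted replicate averages.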

Q: For C8G G19U U125A, which “polymerase ribozyme fitness (log ratio)” value is on record?
A: Its value is -2.65.

Q: For C8G C73U C86U, which “polymerase ribozyme fitness (log ratio)” value is on record?
A: The value was 0.186.

Q: For C8G U9C C56G G69A, which “polymerase ribozyme fitness (log ratio)” value is on record?
A: The value was -2.35.

Q: Which “polymerase ribozyme fitness (log ratio)” value does the source give for C8U G44U C88G U92A here?
A: Its value is -3.81.

Q: Which “polymerase ribozyme fitness (log ratio)” value does the source give for U9A A29U A41U G60A U78C G93U A119G here?
A: Its value is -2.57.

Q: With C8G C11U A16C G44C U59C G60A C115G as the variant, how does the “polymerase ribozyme fitness (log ratio)” value read?
A: Its value is -4.64.

Q: For C8U U30C C49U C124G U133G, which “polymerase ribozyme fitness (log ratio)” value is on record?
A: Its value is -3.25.

Q: With C8U U9G U59C C72U as the variant, how does the “polymerase ribozyme fitness (log ratio)” value read?
A: The value was 0.524.

Q: For C8A U38A A46C, which “polymerase ribozyme fitness (log ratio)” value is on record?
A: The value was -1.09.

Q: For C8G G57A U81A G120A, which “polymerase ribozyme fitness (log ratio)” value is on record?
A: The value was 0.685.

Q: For C8G C15U C49A G93C, which “polymerase ribozyme fitness (log ratio)” value is on record?
A: Its value is -1.27.

Q: Which “polymerase ribozyme fitness (log ratio)” value does the source give for C8G C56G here?
A: The value was 0.255.

Q: Which “polymerase ribozyme fitness (log ratio)” value does the source give for C8G C12U U21G G39C here?
A: Its value is -1.78.

Q: With C8U C124U as the variant, how does the “polymerase ribozyme fitness (log ratio)” value read?
A: The value was 1.6.

Q: Which “polymerase ribozyme fitness (log ratio)” value does the source give for C8U C124A here?
A: Its value is 2.27.

Q: For C8U A100C G117A, which “polymerase ribozyme fitness (log ratio)” value is on record?
A: The value was -1.87.

Q: For C8A G47C U133G, which “polymerase ribozyme fitness (log ratio)” value is on record?
A: The value was -1.25.

Q: Which “polymerase ribozyme fitness (log ratio)” value does the source give for C8G A91U A95C here?
A: The value was -1.32.

Q: Which “polymerase ribozyme fitness (log ratio)” value does the source give for C8G G48U C72A here?
A: The value was 0.0646.

Q: With C8G A43U C88G G110U G120U as the variant, how does the “polymerase ribozyme fitness (log ratio)” value read?
A: Its value is -4.09.

Q: For C8G G48A G63C C72U C88A, which “polymerase ribozyme fitness (log ratio)” value is on record?
A: The value was -4.05.

Q: For C8U A119G U126G G127U, which “polymerase ribozyme fitness (log ratio)” value is on record?
A: The value was -0.0945.

Q: For C8A G19C U59A C82A, which “polymerase ribozyme fitness (log ratio)” value is on record?
A: Its value is -3.12.

Q: With C8G G35C U131A as the variant, how does the “polymerase ribozyme fitness (log ratio)” value read?
A: The value was -5.09.

Q: For C8U U129G U133A, which “polymerase ribozyme fitness (log ratio)” value is on record?
A: The value was -1.94.

Q: For C8U G117U U126C, which “polymerase ribozyme fitness (log ratio)” value is on record?
A: The value was -3.25.

Q: With C8U U21A U30C C56U as the variant, how does the “polymerase ribozyme fitness (log ratio)” value read?
A: Its value is -3.2.

Q: For C8G G63U G77C U129C, which “polymerase ribozyme fitness (log ratio)” value is on record?
A: Its value is -2.81.

Q: With C8G C15G as the variant, how does the “polymerase ribozyme fitness (log ratio)” value read?
A: Its value is -1.24.

Q: For C8G C89A C94G, which “polymerase ribozyme fitness (log ratio)” value is on record?
A: Its value is -2.14.

Q: With C8U C64U U96C as the variant, how does the “polymerase ribozyme fitness (log ratio)” value read?
A: The value was -0.074.

Q: With C8G C72A C102A as the variant, how does the “polymerase ribozyme fitness (log ratio)” value read?
A: The value was -1.22.

Q: Which “polymerase ribozyme fitness (log ratio)” value does the source give for C8A G39U C64U A111U U116G U129G here?
A: Its value is -5.99.

Q: With C8A G58C U59C A105C U132A as the variant, how does the “polymerase ribozyme fitness (log ratio)” value read?
A: The value was -2.68.

Q: For C8A G65C C115A C123G, which “polymerase ribozyme fitness (log ratio)” value is on record?
A: Its value is -4.88.

Q: With U9A A43U C70U C82A U87C U131A as the variant, how does the “polymerase ribozyme fitness (log ratio)” value read?
A: The value was -1.6.

Q: For C8U C22G G45A G47C A100U, which “polymerase ribozyme fitness (log ratio)” value is on record?
A: The value was -4.96.

Q: Which “polymerase ribozyme fitness (log ratio)” value does the source give for C8G U30C C70U G113C U133A here?
A: Its value is -5.26.

Q: For C8G C72U C89A A105U, which “polymerase ribozyme fitness (log ratio)” value is on record?
A: The value was -3.93.

Q: For C8U A29G A43G, which “polymerase ribozyme fitness (log ratio)” value is on record?
A: Its value is -3.05.

Q: Which “polymerase ribozyme fitness (log ratio)” value does the source give for C8U G19C G42U A91G C123U here?
A: The value was -0.955.

Q: With C8G A18U G44U G47A C102A G120A A121C C124U as the variant, how does the “polymerase ribozyme fitness (log ratio)” value read?
A: The value was -6.31.

Q: For C8A G63C U78C U81A C101A U109G, which “polymerase ribozyme fitness (log ratio)” value is on record?
A: Its value is -5.76.

Q: Which “polymerase ribozyme fitness (log ratio)” value does the source give for C8G G63A A83G C85A G122A here?
A: The value was -1.28.

Q: With C8U C11A as the variant, how does the “polymerase ribozyme fitness (log ratio)” value read?
A: Its value is 0.824.

Q: With C8A C72U as the variant, how does the “polymerase ribozyme fitness (log ratio)” value read?
A: Its value is 0.071.

Q: With C8G C98A C102A C115A as the variant, how does the “polymerase ribozyme fitness (log ratio)” value read?
A: Its value is -3.34.

Q: With C8G A37U C49U U54G U133G as the variant, how does the “polymerase ribozyme fitness (log ratio)” value read?
A: The value was -1.23.

Q: With C8U G42A C88U as the variant, how does the “polymerase ribozyme fitness (log ratio)” value read?
A: The value was -0.816.

Q: For C8U C85U C124G, which “polymerase ribozyme fitness (log ratio)” value is on record?
A: Its value is 2.05.

Q: For C8G G44C C64U C76A C124G, which “polymerase ribozyme fitness (log ratio)” value is on record?
A: Its value is -6.22.

Q: For C8U G63A C102A U106C G113A U130G, which “polymerase ribozyme fitness (log ratio)” value is on record?
A: The value was -5.25.

Q: With C8G G17U U59G C115G A118G as the variant, how does the “polymerase ribozyme fitness (log ratio)” value read?
A: Its value is 0.49.

Q: Which “polymerase ribozyme fitness (log ratio)” value does the source give for C8A G71A C104A here?
A: The value was -2.19.

Q: With C8G C56G G63C U126C as the variant, how does the “polymerase ribozyme fitness (log ratio)” value read?
A: Its value is -3.33.

Q: Which “polymerase ribozyme fitness (log ratio)” value does the source give for C8U A24G U112G here?
A: The value was -0.0167.

Q: For C8G C12G C73U A83G G113C, which “polymerase ribozyme fitness (log ratio)” value is on record?
A: The value was -2.3.

Q: Which “polymerase ribozyme fitness (log ratio)” value does the source give for U9A A16U G63U U132A here?
A: The value was -1.

Q: With C8G A50C as the variant, how does the “polymerase ribozyme fitness (log ratio)” value read?
A: Its value is 0.0345.

Q: With C8U G44U C99U as the variant, how does the “polymerase ribozyme fitness (log ratio)” value read?
A: The value was -2.6.

Q: For C8A C94A A119G, which “polymerase ribozyme fitness (log ratio)” value is on record?
A: Its value is -0.132.

Q: With C8G C101A as the variant, how does the “polymerase ribozyme fitness (log ratio)” value read?
A: Its value is -0.236.

Q: For C8G A18U A111G G128A U132C, which “polymerase ribozyme fitness (log ratio)” value is on record?
A: Its value is -2.59.

Q: Which “polymerase ribozyme fitness (log ratio)” value does the source give for C8G C82U C97U G127C here?
A: Its value is -0.232.

Q: For C8U C12U C64A C123U, which “polymerase ribozyme fitness (log ratio)” value is on record?
A: The value was -4.54.

Q: With C8G C12U A68G G122A C123U as the variant, how does the “polymerase ribozyme fitness (log ratio)” value read?
A: The value was -1.28.

Q: With C8G A111C G113U as the variant, how does the “polymerase ribozyme fitness (log ratio)” value read?
A: The value was -3.45.

Q: With C8U C62U C79U C82U A91U A105G C123G U129G U131G as the variant, how does the “polymerase ribozyme fitness (log ratio)” value read?
A: Its value is -5.84.

Q: Which “polymerase ribozyme fitness (log ratio)” value does the source give for C8G C53A here?
A: Its value is 0.628.

Q: For C8U U32G C101A C115G, which “polymerase ribozyme fitness (log ratio)” value is on record?
A: The value was -5.52.

Q: Which “polymerase ribozyme fitness (log ratio)” value does the source give for C8G C114U C123A here?
A: The value was -0.55.

Q: Which “polymerase ribozyme fitness (log ratio)” value does the source give for C8G C13A G52C U92A here?
A: The value was -3.15.

Q: With C8A G69U C88G G128C as the variant, how does the “polymerase ribozyme fitness (log ratio)” value read?
A: The value was -3.18.

Q: For C8G G17U G48A G57U U112G C114U, which “polymerase ribozyme fitness (log ratio)” value is on record?
A: Its value is -5.14.

Q: For C8U A50U, which “polymerase ribozyme fitness (log ratio)” value is on record?
A: The value was -0.00813.

Q: For C8G C20G G63A C124G, which “polymerase ribozyme fitness (log ratio)” value is on record?
A: The value was -4.75.

Q: Which “polymerase ribozyme fitness (log ratio)” value does the source give for C8G C13A A91G U106G G117U here?
A: Its value is -3.24.

Q: Which “polymerase ribozyme fitness (log ratio)” value does the source give for C8G G48U G113A U126C here?
A: Its value is -0.687.

Q: With C8U A24G G36A G44U as the variant, how does the “polymerase ribozyme fitness (log ratio)” value read?
A: Its value is -2.87.

Q: Which “polymerase ribozyme fitness (log ratio)” value does the source give for C8U G117A A119U C123U U133G here?
A: Its value is -1.22.

Q: For C8U C12A G42A C70U U92A, which “polymerase ribozyme fitness (log ratio)” value is on record?
A: Its value is -4.6.

Q: For C8G A111U, which “polymerase ribozyme fitness (log ratio)” value is on record?
A: Its value is -1.64.

Q: With C8A C72G C101G as the variant, how does the “polymerase ribozyme fitness (log ratio)” value read?
A: The value was -2.08.

Q: With C8G C12G U59G U129C as the variant, how does the “polymerase ribozyme fitness (log ratio)” value read?
A: The value was 0.2.
